According to paper doi:10.1101/2021.05.05.442822:
Blank lines part the entries; values can stand above or below the substance they belong to.

How the values were obtained:
H3K9me0 peptide = test: FP; conditions: complex
[1] = biological target: G9a ANK-SET, N-terminally 6xHis-tagged (His:G9a) or N-terminally Maltose Binding Protein tagged (MBP:G9a) (human); test: pull-down
[2] = biological target: fluoresceinated H3 1-20 K9me2 peptide (UniProt P68431); test: fluorescence polarisation
[3] = biological target: unmethylated (H3K9me0) mononucleosome; test: fluorescence polarisation
[4] = biological target: G9a ANK-SET, tag cleaved (human); test: SEC-MALS

Sequence of G9a ANK-SET homodimer (Q96KQ7 whole entry, looked up): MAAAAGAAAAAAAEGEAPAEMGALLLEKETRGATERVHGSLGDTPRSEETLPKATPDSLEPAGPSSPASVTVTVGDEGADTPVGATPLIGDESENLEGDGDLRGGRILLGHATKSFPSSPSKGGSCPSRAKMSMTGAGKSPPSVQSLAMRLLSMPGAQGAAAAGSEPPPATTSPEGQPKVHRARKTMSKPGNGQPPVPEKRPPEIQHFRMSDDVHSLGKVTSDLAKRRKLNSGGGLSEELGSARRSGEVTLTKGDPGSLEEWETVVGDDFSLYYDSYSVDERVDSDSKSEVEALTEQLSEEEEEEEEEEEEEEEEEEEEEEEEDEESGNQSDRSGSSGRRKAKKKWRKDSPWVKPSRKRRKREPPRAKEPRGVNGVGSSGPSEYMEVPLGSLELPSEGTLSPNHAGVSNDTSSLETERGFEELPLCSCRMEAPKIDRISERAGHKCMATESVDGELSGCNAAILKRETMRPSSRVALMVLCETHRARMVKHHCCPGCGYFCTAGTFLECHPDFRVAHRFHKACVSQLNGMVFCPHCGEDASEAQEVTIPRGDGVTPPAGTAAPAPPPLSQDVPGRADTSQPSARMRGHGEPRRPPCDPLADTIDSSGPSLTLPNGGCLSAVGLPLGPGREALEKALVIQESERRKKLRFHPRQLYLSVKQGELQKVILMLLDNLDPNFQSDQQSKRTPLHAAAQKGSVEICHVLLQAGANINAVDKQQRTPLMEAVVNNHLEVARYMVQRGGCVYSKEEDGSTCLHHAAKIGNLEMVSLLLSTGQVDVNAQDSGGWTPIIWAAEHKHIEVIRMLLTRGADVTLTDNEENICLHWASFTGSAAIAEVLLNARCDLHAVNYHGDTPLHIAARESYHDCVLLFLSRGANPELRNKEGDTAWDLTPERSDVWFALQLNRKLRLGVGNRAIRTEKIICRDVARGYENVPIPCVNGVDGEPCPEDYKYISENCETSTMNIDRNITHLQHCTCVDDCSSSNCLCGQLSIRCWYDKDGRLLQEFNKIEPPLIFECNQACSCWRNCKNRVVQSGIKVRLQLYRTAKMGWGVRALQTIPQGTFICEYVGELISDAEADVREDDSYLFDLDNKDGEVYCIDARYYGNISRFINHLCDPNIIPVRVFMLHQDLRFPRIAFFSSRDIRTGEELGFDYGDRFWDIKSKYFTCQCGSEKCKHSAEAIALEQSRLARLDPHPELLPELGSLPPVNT

stoichiometry N [1]: 2
Substance: G9a ANK-SET, N-terminally 6xHis-tagged (His:G9a) or N-terminally Maltose Binding Protein tagged (MBP:G9a) (domain or fragment)

fold reduced binding [2]: 12.5 times | Kd [3]: 26.3 µM
Substance: GLP ANK-SET homodimer (complex)

Second part, the substance before the results:

Substance: G9a ANK-SET homodimer (from UniProt Q96KQ7)
Kd (H3K9me0 peptide): 100 µM

Substance: GLP ANK-SET, N-terminally Maltose Binding Protein tagged (MBP:GLP) (domain or fragment)
stoichiometry N [1]: 1

Substance: GLP ANK-SET, tag cleaved (domain or fragment)
stoichiometry N [4]: 1
